In general, pKd refers to the Kd on a negative log10 scale, so that one unit is a factor of ten.

Holding throughout (assay): holdup assay
What all share (parameters): key: below the threshold = too weak to quantify, mostly under pKd 3.1 to 4

One test deals with IL16_4, Q14005.
Another test concerns the target T1, PCLO, Q9Y6V0.
T1 sequence (Q9Y6V0 4491-4600, limits assumed, looked up): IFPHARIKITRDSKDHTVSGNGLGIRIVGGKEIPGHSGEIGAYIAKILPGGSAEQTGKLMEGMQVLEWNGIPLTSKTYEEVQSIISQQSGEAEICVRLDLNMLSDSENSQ

In a further test the target is T2, DVL3, Q92997.
T2 sequence (Q92997 244-331, limits assumed, looked up): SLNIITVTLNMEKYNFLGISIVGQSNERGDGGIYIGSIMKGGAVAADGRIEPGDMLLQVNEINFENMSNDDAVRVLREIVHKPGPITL

Setting [1] is: plain residues with an end cap or a label only (N-terminal biotin on a linker: ado-ado).
Where [2] appears, read: modified: phospho on T at position -2 from the C-terminal residue.

Chain of IL16_4, Q14005 (Q14005 1229-1329): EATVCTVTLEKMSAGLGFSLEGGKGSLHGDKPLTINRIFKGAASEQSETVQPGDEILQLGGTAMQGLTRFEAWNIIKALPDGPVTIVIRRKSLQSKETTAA

On to PAPSSGKDYV [CLDN1, O95832], for which the pKd entry with IL16_4, Q14005 (setting [1]) was “below the threshold”; with PCLO, Q9Y6V0 (setting [1]), “below the threshold”; with DVL3, Q92997 (setting [1]) it was “below the threshold”.

For the molecule TPPAAKKSRI [BAZ1A, Q9NRL2], the pKd in the test with IL16_4, Q14005 (setting [1]) is 3.69; with PCLO, Q9Y6V0 (setting [1]) it was “below the threshold”; with DVL3, Q92997 (setting [1]), “below the threshold”.

In the case of SAKVRTVTSV [RASL11B, Q9BPW5], the negative-log Kd (pKd) entry in the test with IL16_4, Q14005 (setting [1]) was “below the threshold”; with PCLO, Q9Y6V0 (setting [1]), “below the threshold”; in the test with DVL3, Q92997 (setting [1]), “below the threshold”.

For the molecule NHSSSPETTA [TRMT13, Q9NUP7], the negative logarithm of the Kd (pKd) entry with IL16_4, Q14005 (setting [1]) was “below the threshold”; in the test with PCLO, Q9Y6V0 (setting [1]), “below the threshold”; in the test with DVL3, Q92997 (setting [1]), “below the threshold”.

As to QSLNRMEYIV [JAG1, P78504], the negative logarithm of the Kd (pKd) entry with IL16_4, Q14005 (setting [1]) was “below the threshold”; with PCLO, Q9Y6V0 (setting [1]), “below the threshold”; with DVL3, Q92997 (setting [1]) it was 3.78.

LPHGHSTTRV [NLGN4X, Q8N0W4]: the pKd is 3.74 with IL16_4, Q14005 (setting [1]); “below the threshold” with PCLO, Q9Y6V0 (setting [1]); “below the threshold” with DVL3, Q92997 (setting [1]).

Regarding NLSIEKETKL [ASNSD1, Q9NWL6], the negative-log Kd (pKd) entry with IL16_4, Q14005 (setting [1]) is on record as “below the threshold”; with PCLO, Q9Y6V0 (setting [1]) it was “below the threshold”; in the test with DVL3, Q92997 (setting [1]), “below the threshold”.

With IPLDGETEEL [MYOZ1, Q9NP98], the negative-log Kd (pKd) entry with IL16_4, Q14005 (setting [1]) is “below the threshold”; with PCLO, Q9Y6V0 (setting [1]) it was “below the threshold”; with DVL3, Q92997 (setting [1]), “below the threshold”.

QGLAERISVL [PRKD2, Q9BZL6]: the pKd with IL16_4, Q14005 (setting [1]) is 3.71; with PCLO, Q9Y6V0 (setting [1]) it was “below the threshold”; with DVL3, Q92997 (setting [1]), “below the threshold”.

With GQEEQVTTRL [TRPC5, Q9UL62], the negative-log Kd (pKd) entry is listed as “below the threshold” with IL16_4, Q14005 (setting [1]); “below the threshold” with PCLO, Q9Y6V0 (setting [1]); “below the threshold” in the test with DVL3, Q92997 (setting [1]).

For the molecule KSGKQTMLVV [TRIM29, Q14134;Q14134-2], the pKd result in the test with PCLO, Q9Y6V0 (setting [1]) is listed as “below the threshold”; in the test with DVL3, Q92997 (setting [1]) it was “below the threshold”.

Turning to QPCFNKLFPL [LPXN, O60711], the negative-log Kd (pKd) entry with IL16_4, Q14005 (setting [1]) is recorded as “below the threshold”; in the test with PCLO, Q9Y6V0 (setting [1]), “below the threshold”; with DVL3, Q92997 (setting [1]) it was “below the threshold”.

For the molecule RHGSCVETSL [TMEM151B, Q8IW70], the negative logarithm of the Kd (pKd) is 3.61 with IL16_4, Q14005 (setting [1]); “below the threshold” with PCLO, Q9Y6V0 (setting [1]); “below the threshold” with DVL3, Q92997 (setting [1]).

Turning to EVEEFPETSV [TRPV3, Q8NET8], the negative logarithm of the Kd (pKd) entry was “below the threshold” with IL16_4, Q14005 (setting [1]); “below the threshold” with PCLO, Q9Y6V0 (setting [1]); 3.59 with DVL3, Q92997 (setting [1]).

For QKNRKAQEDL [CES3, Q6UWW8], the negative-log Kd (pKd) was 3.63 in the test with IL16_4, Q14005 (setting [1]); “below the threshold” with PCLO, Q9Y6V0 (setting [1]); “below the threshold” with DVL3, Q92997 (setting [1]).

As to LSEFKAMDSI [CTNNA1, P35221], the pKd result in the test with IL16_4, Q14005 (setting [1]) is on record as “below the threshold”; with PCLO, Q9Y6V0 (setting [1]), “below the threshold”; with DVL3, Q92997 (setting [1]), “below the threshold”.

For SKENVQETQI [LRRC4B, Q9NT99], the negative-log Kd (pKd) result with IL16_4, Q14005 (setting [1]) is listed as “below the threshold”; with PCLO, Q9Y6V0 (setting [1]), “below the threshold”; with DVL3, Q92997 (setting [1]) it was “below the threshold”.

For the molecule DTTVPESEDL [MYOZ2, Q9NPC6], the negative-log Kd (pKd) result is listed as “below the threshold” with IL16_4, Q14005 (setting [1]); “below the threshold” with PCLO, Q9Y6V0 (setting [1]); “below the threshold” with DVL3, Q92997 (setting [1]).

On to EVNETDDTKM [KCNJ1, P48048], for which the negative logarithm of the Kd (pKd) in the test with IL16_4, Q14005 (setting [1]) was 3.64; in the test with PCLO, Q9Y6V0 (setting [1]), “below the threshold”; with DVL3, Q92997 (setting [1]) it was “below the threshold”.

With RLQRRRETQV [HPV18-E6_-2P, P06463], the pKd entry in the test with IL16_4, Q14005 (setting [2]) is “below the threshold”; with PCLO, Q9Y6V0 (setting [2]), “below the threshold”; with DVL3, Q92997 (setting [2]), “below the threshold”.

Take QHKTQLQTLI [BPIFA2, Q96DR5]: the pKd entry with IL16_4, Q14005 (setting [1]) is reported as “below the threshold”; with PCLO, Q9Y6V0 (setting [1]), “below the threshold”; with DVL3, Q92997 (setting [1]), “below the threshold”.

SSALYGESDL [ACTN2, P35609]: the negative logarithm of the Kd (pKd) result was “below the threshold” with IL16_4, Q14005 (setting [1]); “below the threshold” in the test with PCLO, Q9Y6V0 (setting [1]); “below the threshold” with DVL3, Q92997 (setting [1]).

Consider DDPSTAETVL [ABCA7, Q8IZY2], for which the negative-log Kd (pKd) result with IL16_4, Q14005 (setting [1]) is recorded as “below the threshold”; with PCLO, Q9Y6V0 (setting [1]), “below the threshold”; with DVL3, Q92997 (setting [1]), “below the threshold”.

For QMNQTLPVQV [EPHB3, P54753], the negative-log Kd (pKd) in the test with IL16_4, Q14005 (setting [1]) was 3.77; with PCLO, Q9Y6V0 (setting [1]), “below the threshold”; with DVL3, Q92997 (setting [1]), “below the threshold”.

As to PDGQCTVTEV [RNF146, Q9NTX7], the pKd result is recorded as “below the threshold” in the test with IL16_4, Q14005 (setting [1]); “below the threshold” with PCLO, Q9Y6V0 (setting [1]); “below the threshold” with DVL3, Q92997 (setting [1]).

Consider PRISRSQSEL [CCDC134, Q9H6E4], for which the pKd is 3.8 with IL16_4, Q14005 (setting [1]); “below the threshold” with PCLO, Q9Y6V0 (setting [1]); “below the threshold” with DVL3, Q92997 (setting [1]).

GNSVLKSTQF [SLC22A12, Q96S37]: the pKd is 3.58 with IL16_4, Q14005 (setting [1]); “below the threshold” with PCLO, Q9Y6V0 (setting [1]); “below the threshold” with DVL3, Q92997 (setting [1]).

In the case of YYKRPVQEWV [MMP24, Q9Y5R2], the pKd is 3.57 in the test with IL16_4, Q14005 (setting [1]); “below the threshold” in the test with PCLO, Q9Y6V0 (setting [1]); 4.38 with DVL3, Q92997 (setting [1]).

As to VNKSKLLTDV [KCNA1, Q09470], the pKd result in the test with IL16_4, Q14005 (setting [1]) is “below the threshold”; with PCLO, Q9Y6V0 (setting [1]), “below the threshold”; in the test with DVL3, Q92997 (setting [1]), “below the threshold”.

For HLRARKSEWV [GJD4, Q96KN9], the negative logarithm of the Kd (pKd) entry in the test with IL16_4, Q14005 (setting [1]) was “below the threshold”; in the test with PCLO, Q9Y6V0 (setting [1]), “below the threshold”; in the test with DVL3, Q92997 (setting [1]), 3.79.

In the case of VDSTVKVWTC [TRAF7, Q6Q0C0], the pKd entry is “below the threshold” with IL16_4, Q14005 (setting [1]); “below the threshold” in the test with PCLO, Q9Y6V0 (setting [1]); 3.85 with DVL3, Q92997 (setting [1]).

On to YLEPVLSSEL [ATP2A2, P16615;P16615-3], for which the negative logarithm of the Kd (pKd) result with IL16_4, Q14005 (setting [1]) is recorded as “below the threshold”; with PCLO, Q9Y6V0 (setting [1]) it was “below the threshold”; in the test with DVL3, Q92997 (setting [1]) it was “below the threshold”.

In the case of VYPNAKVELV [PDLIM4_iso2, P50479;P50479-1], the pKd entry in the test with PCLO, Q9Y6V0 (setting [1]) was “below the threshold”; in the test with DVL3, Q92997 (setting [1]), “below the threshold”.

As for PKRSFIESNV [TANC1, Q9C0D5], the negative logarithm of the Kd (pKd) entry is given as “below the threshold” with IL16_4, Q14005 (setting [1]); “below the threshold” with PCLO, Q9Y6V0 (setting [1]); “below the threshold” in the test with DVL3, Q92997 (setting [1]).

As for LPHPHSTTRV [NLGN2, Q8NFZ4], the negative logarithm of the Kd (pKd) is 3.7 with IL16_4, Q14005 (setting [1]); “below the threshold” with PCLO, Q9Y6V0 (setting [1]); “below the threshold” in the test with DVL3, Q92997 (setting [1]).

SKSNFGSEPL [KIF17, Q9P2E2]: the negative logarithm of the Kd (pKd) result is on record as “below the threshold” with IL16_4, Q14005 (setting [1]); “below the threshold” with PCLO, Q9Y6V0 (setting [1]); “below the threshold” with DVL3, Q92997 (setting [1]).

Regarding DDEDRLVIEI [ZNF831, Q5JPB2], the negative-log Kd (pKd) with IL16_4, Q14005 (setting [1]) was 3.77; in the test with PCLO, Q9Y6V0 (setting [1]) it was “below the threshold”; with DVL3, Q92997 (setting [1]) it was “below the threshold”.

VRNLPESEEL [MYOZ3, Q8TDC0]: the pKd result is on record as “below the threshold” in the test with IL16_4, Q14005 (setting [1]); “below the threshold” in the test with PCLO, Q9Y6V0 (setting [1]); “below the threshold” with DVL3, Q92997 (setting [1]).

The values are drawn from PMC9482650, “Quantitative fragmentomics allow affinity mapping of interactomes” (Nature Communications, 2022).
